Assay results: the DeepSol protein solubility set

assay: soluble on expression in E. coli; label from the status in PepcDB or PDB records

Row | Sequence | soluble on expression in E. coli
1 | MGSDKIHHHHHHMERLFESFIKKLAITNTSFVRSLMNEIEWEARLIGIKGARGVGKTTLLLQYIKLNLPMDKTVLYASVDNIWFSEHKLYDLASDFVKRGGKYLFLDEVHKYPNWSQELKNIYDDLPELHVVFTGSSLLEILNAKSDLSRRAIVYEMQGFSFREYLNWNEKLSLPILTLNNILDNHLALSVGIVDKVKVLKHFSDYLKHGYYPYYNELPSLYYSRINEVVNLIVELEIPQLRGVDISYTTKIKQLLYIIAESAPFIPNVSKLSERIGISRNSLLAYLDALHDSCLTMNLQKEGSGISRLQKPDKLFLENPNLMYALSASQIDIGNVRETFFANQLRYCHKINVSKESDFFIDGRYTFEVGGRHKGKQQINGLSDAYIVADDIEYGINNKIPLWLFGFLY | not soluble
2 | MGSDKIHHHHHHMESFYRTHAYLVEHTNAPVRRDLMDEIDWSDRLIGIKGTRGVGKTTFLLQYAKEKFGTDRSCLFINMNNFYFSGHSLVDFANEFQKRGGKVLLIDQVFKHPEWSKELRMCYDRFPSLKIVFTGSSVMRLKEENLELRDIAKSYNLRGFSFREFLNLQTGMKFRAYSLEEILSTHEQIAKGVLSKVRPLDYFQDYLHHGFYPFFLEKRNFSENLLKTMNMMVEVDILLIKQIELKYLSKIKKLLYLLAVDGPKAPNVSQLASDVQTSRATVMNYIKYLADARLINLVYPKGEEFPKKPSKIMMHNSNLMYSIYPVKVEEQDVLDTFFVNTLWKDHKVHKGDKNVSFMVDEVMPFKICAEGTKIKNNPDVTYALQKAEIGRGNQIPLWMFGFLY | not soluble
3 | MGSDKIHHHHHHMESMLKKICQDPVLQKDKDFLLFLTSDDFSSESKKRAFLTGSGAINDSNDLSEVRISEIQLLGAEDAAEVLKNGGIDAESHKGFMSISFSSLPKYNEADEFFIEKKQKIDELEDNLKKLSKSLEMVDTSRNTLAASTEEFSSMVETLASLNVSEPNSELLNNFADVHKSIKSSLERSSLQETLTMGVMLDDYIRSLASVKAIFNQRSKLGYFLVVIENDMNKKHSQLGKLGQNIHSEKFREMRKEFQTLERRYNLTKKQWQAVGDKIKDEFQGFSTDKIREFRNGMEISLEAAIESQKECIELWETFYQTNL | not soluble
4 | MGSDKIHHHHHHMETCRQEVTMDKVFIISQKAEQQADAIETGIALARVLEKEAEVFAYSYESFAGKEYYNPRLGAAAKVALMNQRSEEIAAKLKALKAEDVAVHSVWTKDLFEHACHHSIRHGFDLMVKAVHHKTHYLPMDWQLIRHVRIPLMMLCDNPLQRARSVLMAVDLGSDNPIKQKLNQCVIQQGRQLAEAMDCQLHLAYIIRVPKILRDMDLIDTRTLVKDAYHRYQPQLDEIDLHQEHVHFLAGDPDLCLYELSCRLKAAYLVMGARQRKGLMGMVIGNTAEAMLTRIRSNVLIIPADDQLLPA | not soluble
5 | MGSDKIHHHHHHMETIERHFRCNEGSAADYAAQLREVGTVMLPAYVAFDAHELAHIDALQARLPEEPVTAGDAGDTHDIYVRRIMVDRAGERPQLVNRPHSEPILALLTDARRTRFFGDMFGANAEYFIRRCQINRMLKDSFIGLHLDAASNPDYEFSVVIQLGREFDGGEFVVHPEGRLPNVFAPTYGTVIVTSCMHRHEVRSVRANERTSLVYFYARHNGVNRRAN | not soluble
6 | MGSDKIHHHHHHMETVYFKTLLAVVETGSFSRAAERLCITQSAVSQRIKLLEGRYGYTLIDRAGNFLVPTAAGELVIQKARVIIEHELALLGALKLLPAKTVISFCCSPCFGTVFLPALVRDFVLRNSEQIDFRCVLGSSQGAVRGLRDTDFNIIVIEHCTPLDLSPYDVISLPNDEIIFVSNPATGLDVPEPDLSQLLNLPVIMRKEGCSGTEQLAANLARFGKVLEDFRSVTGLDDPRLIVQTVKTEPYLAFVPKSLVLKELAEGSLRAHTVKGFSHARFRSLVTAPKRYSDPCRSNFIKAVMETVCHISAVSMPGDGPGSRWHKKRPSGRRAPLNSAVTNNAAI | not soluble
7 | MGSDKIHHHHHHMEYEQLLQSELGELEIIREELQNKEYRGMIVKTAKDGTTIRTRLAKKTDKKTGYFVAFWEKDELGKNCPFDENDSADFLCIVVIDGDLNGLFVFPRQCLIEKGILTSEVGIGKMAARFYPSWCQDLNKTAEKTQAWQQVYFKNYSIRKEDH | not soluble
8 | MGSDKIHHHHHHMEYTSLIFPGDKIDIFASGLSDNSTSYKSSFSDKLTDSMWEITMPVDSGRVVLFQLGTQFDFIIYTQNKTILKSSAIVRQRYRKENMYFLAIELINNLEKIQRRQFFRLPCTIDMDFYEVRYDDKAESELEFCKKMYKNHAINSKNMNTVKSVILDISGGGIRFSLSTPLEEGTYFMAQFSLALEECTQQFNIVCKVINCTQSLDYADRYFARSKFIFDRMTEREKIVRFVFEEERRIRRREME | not soluble
9 | MGSDKIHHHHHHMFAKFVQRHGAARKAADKTIRAQAGALYAALKDPPGPPHAPASAEHREHQEQDAKEQTMYNDSKHGFDVAQTEYEAFMLEPHDWVPNNRKLPVVIYRRALMPASGDLAAAFEILFERNAWPPQWRDGIFDYHHFHATAHEILGVTDGSAQVIVGGPGGRVVTLCAGDALLLPAGTGHCLQSFARHFQVVAGYPEGQQWDIRREALTPDELASMEALPFPSLDPIDGKHGPLVEHWLHAA | not soluble
10 | MGSDKIHHHHHHMFDPTLLHIINAHSRNPHYHKKFPIILFWSQKSGCTSLAKWFFYQIDLLQTALNYSPFIHNYEYDIYKNAPAYSLRLGIALREKQKETFKLVRNPYKRAVSSFVSLIAPPYIENPEWKPIRKFLYQDENSSKGLSFKQFLYYLLINGAQANSINPHFTQQYIADEEKYVTNYIYLENFNQDMKALEKRFELKTAPINEFSTSWHHQTPSMIYKGNFSESDITDPLFPRLPTFESFYDTECIQLVQTIFQNDFNTYKYSKEYPY | not soluble
11 | MGSDKIHHHHHHMFKSTDNYIASNELTLAVNAAIALEKPLLIKGEPGTGKTQLAEELARSLNCKLYQWHIKSTTKAQQGLYEYDAVSRLRDSQLGDARVHDIGNYIVKGKLWQAFEEDQRSILLIDEIDKADIEFPNDLLQELDKMEFYVYETQQVIKAKQRPIIIITSNNEKELPDAFLRRCFFHYIKFPTKDEMAKIIDVHHPNVKQDLLQQALEVFFDLRDVNGIKKKPSTSELIDWLKLLISDDISQDTLLDKKSDIIPLFGALLKNEQDVSLIEKLAFMSRRNR | not soluble
12 | MGSDKIHHHHHHMFLGEDYLLTNRAAVRLFNEVKDLPIVDPHNHLDAKDIVENKPWNDIWEVEGATDHYVWELMRRCGVSEEYITGSRSNKEKWLALAKVFPRFVGNPTYEWIHLDLWRRFNIKKVISEETAEEIWEETKKKLPEMTPQKLLRDMKVEILCTTDDPVSTLEHHRKAKEAVEGVTILPTWRPDRAMNVDKEGWREYVEKMGERYGEDTSTLDGFLNALWKSHEHFKEHGCVASDHALLEPSVYYVDENRARAVHEKAFSGEKLTQDEINDYKAFMMVQFGKMNQETNWVTQLHIGALRDYRDSLFKTLGPDSGGDISTNFLRIAEGLRYFLNEFDGKLKIVLYVLDPTHLPTISTIARAFPNVYVGAPWWFNDSPFGMEMHLKYLASVDLLYNLAGMVTDSRKLLSFGSRTEMFRRVLSNVVGEMVEKGQIPIKEARELVKHVSYDGPKALFFG | soluble
13 | MGSDKIHHHHHHMFNLEEYTEKAQKVMMSIQDIMTRYRQNQLSSEHILLAILEEGNNVGVELLKELNVDINRLKDEVEVFIGKYGVRVPEGASVSQIFITPDARHVIEKAREEARRMGDSKIGTEHLILGMVLSPDSTAFRILSRYGVTPERVYEAIRKIRSTGKTDEAENVEALARFTVDLTQLAREKKLMPVVDREKEIRRVIQILSRRTKNNPVLIGDPGVGKTAVVEGLAQRIVEGKVPLFLRNVRVLKLDMGRLVAGTRFRGDFEERLKRLLDELKRKKGEVILFIDEVHTVVGAGAAEGALDAANIMKPELTTGEIQIIGATTVEEYRKYIEKDRALERRFQPVMVEEPTVEQTIEILKGLRKVFEEHHHVKITDDALEAAAKLSARYITNRFLPDKAVDLIDEAAAYVRLESSYPSEELLKLEEEIKNLEDKINDAVVKGEYEEAAKLKVELQKLKNEYEEKRKKQEKVEPVVDENVVAKIVEQWTGIPVSRIMESEREKLLKLEEFIHQRLVNQEEAVKIVARTIRRARVGIKNPRRPIGVFLFLGPTGVGKTELARTLADVLFGSEDAMIRLDMSEYMEKHSVARLIGAPPGYVGYEEGGQLTEAVRKRPYSVILLDEIEKAHPDVFNILLQVFEDGRLTDGKGNTVDFRNTIIIMTSNIGSEKILEMSENGVRIEIEKELRNTFKPEFLNRIDAIVYFKPLTMEEVKKIVEIMVRQLQEILKEKNISIELTERAKEYLAEAGYVPSLGARPLRRIIELELESMIADKILEGEIKEGDRVLVDADEYGLKIERR | not soluble
14 | MGSDKIHHHHHHMFSKSLEALHHAKRYRKRELFDPLLKDYASNDYLGLSVKKDLLQNAFNKLQSFVSHSPKASMLVNGYHPLHAELEERLANLLGFESALLVGSGFLGNLALIDTLLVKNALLFMDAHYHASGIFSTKIKPNQVIFFSHNDIKDLKQKLFNAPKNKIKFIAIEGVYSMDASVAPYDFYAIIQEIPNAFLIVDEAHSFGTIGENLLGFLEYYRIKEKDKIIKLSTFSKALASYGACILAPLQTIEFLTNRAKSVIYTTALSLLDTALTLAHLEYFIVQKQELKNELSKHQQIIFETLGIRTLAGFFTLEFESNPALLNAHHFLKEKGFLVGAIRPPTVSKPLLRVSLSLKNSLEDTKELANTLLNYSKIQSSFKSG | not soluble
15 | MGSDKIHHHHHHMFTKKSRNIYKAGSLCEFAKAFFIGGIDVENVVKHALLKEVEQLMEQYIGGLKEIFLDEKIVGVYIYGSIALGAFHAETSDVDFVTVISDPVNEAEKQQLVELHKKLSGSTLGKRMDGMYIPLADLGKYNDEMNEYVYCADGKANIGHWDINAVTWWTLKNQGITVIGKEAEDLSFQIRWDDVVNTMKYNVEQYWSGKAKQPYLFFIEEWVESAVVTMGRILYTLDHKTIVSKDRGLQYLLEHSSEEWGPLLKEVERIRQNPKEKRMLSRWRRADMTKRFLLHLIETCRGKWTIQ | not soluble
16 | MGSDKIHHHHHHMFTMICPVCEKSVNDMQGLALHFRSGSIHGDGKHASWISAEQIEHGISDSDLSDVLIRIFRPEESLIRWARMEFIAKFYAHPHPFMEAMQKPTVPVLLGYVIEHRFFLKNWIRTLSMVIHSTTSDDAFEYEVENVATEYIGLNGKPSHLELLLRMGEALGMSRKRIMEYSPLPETSQAIEVWYGISNRYSWIDTMGAMHVLELVADRTLVDDGSPIHYFNPEILKGSDYPEAVKNFLMEGYEADVGHAGEALKIVQAATMDDLTTRSIMLRSMDAFYVYLNARMRRARMLEASWGE | not soluble
17 | MGSDKIHHHHHHMFVPAPDATITNCRNCPLRRKPLFLPFSDSELSFMEQFKVGELVVAPGVTLLEEGQGSAHLFTVLSGLGIRSTMLENGRRQVINFLFPGDFIGLQAGLAGEMRHSVESTTTMVLCVFNRADLWDLFREEPERAYDLTWIAAVEEHFLGETIASLGQRDATERLAWALLRIHERLSAIGLAERGRVPMPWRQQDLADALGLSLVHTNKTIRRLRETGHALWEGGTLFVDRERLATLALADPDRPRRRPLI | not soluble
18 | MGSDKIHHHHHHMGDDILSQEEVDALLRGVSGEDEDDDGGQDAQGVRGYDIGRQERIVRGRMPTLEIINERFARNLRIGLFNFLRRNAEISVGPVRVQKYSEFIRNLVVPTNLNLVHVKPLRGTGLLIFDPDLVFLIVDNLFGSDGRYHVRVEGRDFTPTEQRIIHRLLEVVFTECQKAWEPVYPIEFVYLRSEMNTQFANIATPTEVVVAMTFHIELGAGGGDFHICLPYSMVEPIRDLLSSTMQADRTEVDNRWVNLMTHQVQAAEVELVASLAHAKVTLGQILNLKNGDVVMIEIPERVEADVSGIPVFEASYGTVQGRYALKVEKILAGTNEFLESPGEHEQ | not soluble
